Test results taken from a protein production outcome set (Wang et al. 2014).

Assay: label from the status in PepcDB records

Sequence: MMRVGIIGAGNIGHMHAEAVAACENTLLTGVFDLDRERAQSLARASGTVAFASPDELYKASDGVVVASPNRTHADYAREAVAYGRSVLCEKPMAVSLLQAADMRALAAVAPGVCAVGFNYRYLNVIREARNRIGEGMLGRVVHVDVAFKRASALTRQHFTWRDSAAEGHTSGALGDLGVHLIDMLHHLFRSPVDLASCQVALRTKVAAKGGHAVEVDDHAFVSGRIEGGPSFTLTASKASQPEETGFTLAAMGSRGDLSHDSQDGPVLHLRTGIDWEQVKLLGPSRLDDPRGEVTGWGDSFLDQLHDWAGAVTASQRSGTLADFEDGYQAQQVLQELLRIGGRM
- protein production: failed

Sequence: MMRVLHISDTHFGTEREPVVHALHALADTLRPDLVVLGGDITQRARRGQFAAARRFIQALQRPVLAVPGNHDIPLFNLAARLFDPYGNYRRALGAVLEPVYEDDRLLAIGVNSTRAARRKNGEVSRTQAQRVAQRLRDARPGQLRVVALHHPVHAMVESDQRNLLIGREFAVPAWVDAGVDLILGGHIHLPYVAPLHGKAGEAGRRAWTVQAGTAVSRRVRGRVPNSVNLIDYAAQADSPACTVQRWDFQTDSGAFVLFGQQVLALNRARG
- protein production: failed

Sequence: MMSDSPQKLGRNEWNAYMDKVKAKDREAFAFVFRFYAPKLKQFAYKHVGNEQVAMEMVQETMATVWQKAHLYDGKKSALSTWIYTIIRNLCFDLLRKQKGKELHIHSDDIWPSEYYPPDMVDHYSPEQDMLKEQVVKFLDILPKNQRDVLQAVYLEELPHQQVAELFDIPLGTVKSRLRLAVEKLRHSMHTEQL
- protein production: failed

Sequence: MMSEAIIHGIILAFGLIIPLGVQNVFVFNQGASQPNIWRAAPVVLTASICDTLLILIAVQGVSLVLLTFSWLTNSLYIIGFFFLLYMGFVIWRSNPSNDVKQEKSMPLKKQILFAASVSLLNPHAILDTIGVIGTNSIQYIGSEKWAFTLATIIVSWIWFISLALAGKFLKRLDSTGKTILLLNKFSGLIIWGVALYMLKQVIYS
- protein production: failed

Sequence: MMTETVRTWRHIPQRYNLTGSKCLQCGNVFFPSRIICPECRRKGKLEELKFSGKGRIHSYSVINTPTDEFKDIAPYVVAIVELEEGARVTSQIVDCDPDSIEIGDEVEMVFRKVREEGEDGVISYGFKFKPKT
- protein production: failed

Sequence: MMTLIRITSADDSRLNRLIPLYEESFPESERRKIGQLKRMIENHAPMYFNAIECDGELSGMFVYWDMGDFYYLEHLAVFPEMRNKKIGQQVLDYVAEHLKGVRLLEVEPTEDEMTTRRVNYYRRNGYEVLDKTYVQPSYHALEDACPLWIMGSEDSPRLAEQVERIKEEVYRQQVG
- protein production: not failed

Sequence: MMWESESDGGVGVGGGGGREYGDGVLSSNKHGGVKTDGFELRGQSWFVATDIPSDLLVKIGDMNFHLHKYPLLSRSGKMNRLIYESRDPDPTILILDDLPGGPEAFELASKFCYGVPVDLTATNISGLRCAAEYLEMTEDLEEGNLIFKTEAFLSYVVLSSWRDSILVLKSCEKLSPWAENLQIVRRCSESIAWKACSNPKGIRWAYTGKAPSPSTTNFAGSSPRWNESKDSSFYCSPSRNTNSQPVPPDWWFEDVSILRIDHFVRVITAIKVKGMRFELLGAVIMHYAGKWLPGLIKEGGVAIAPAMSSAIGGGLGLGGDEMSISCGSNSSGGSSGPDWKGGLHMVLSAGKTNGHQDSVACLAGLGISPKDQRMIVESLISIIPPQKDSVTCSFLLRLLRAANMLKVAPALITELEKRVGMQFEQATLQDLLIPGYNNKGETMYDVDLVQRLLEHFLVQEQTEGSSPSRMSPSPSQSMYADIPRGNNNNGGGGGGNNQNAKMRVARLVDSYLTEVARDRNLPLTKFQVLAEALPESARTCDDGLYRAIDSYLKAHPTLSEHERKRLCRVMDCQKLSMDACMHAAQNERLPLRVVVQVLFSEQVKISNALANTSLKESTTLGEAMGTYQPMIPNRKTLIEATPQSFQEGWAAAKKDINTLKFELETVKTKYVELQNEMEVMQRQFEKTGKVKNTPSSSAWTSGWKKLSKLTKMSGQESHDISSGGEQAGVDHPPPRKPRRWRNSIS
- protein production: failed

Sequence: MMYFISDTHFYHENIINLNPEVRFKGFEIVILTNLLKVLKPEDTLYHLGDFTWHFNDKNEYLRIWKALPGRKILVMGNHDKDKESLKEYFDEIYDFYKIIEHKGKRILLSHYPAKDPITERYPDRQEMVREIYFKENCDLLIHGHVHWNREGIKCACKDYRIECINANVEWNDYKPISEREIDKLISYEKAKN
- protein production: not failed

Sequence: MNAEHAVTLRAPAADWERSEREARQAAAYVAAFVGVPAVVAAAAALALFALTALVLLAPLVACVLTWAAWRYGRPERRGARRA
- protein production: failed

Sequence: MNAIRYTKRECKDEKKITEFLNKARTGFLGLSTNDQPYVIPLNFVWHNHAIYFHGASEGRKIKMIEANPEVCFTICEDLGTIVSPVPAHTDTAYMSVIIFGTIEPVSAIEEGTEAMQQMLDKYVPGYYHSPLAASHVEKYRSSLGSRTAIYKISCRERTAKVNEPIESLKFYPGRNVSVDKDSR
- protein production: not failed

Sequence: MNAKEILVHSLRLLENGDARGWCDLFHPEGVLEFPYAPPGWKTRFEGRETIWAHMRLFPEHLTVRFTDVQFYETADPDLAIGEFHGDGVATVSGGKLAQDYISVLRTRDGQILLYRDFWNPLRHLEALGGVEAAAKIVQGA
- protein production: not failed

Sequence: MNAKRWVALGIVFALLIVSALAKFTSSQIASTEESSPTFVESLFADTGELTETVIEEGGDDTIAVLSVDGTIQDTGDSGSLFGDAGYDHSFFMQQLEQVRNDDYIQGVLLYVNSPGGGVMESAQIRDKILQIQKERNIPFYVSMGSMAASGGYYISAPADKIFASKETLTGSLGVIMQGYDYSELMKKLGVSDNTIKSGEYKDIMSGTRPMTEDEKKIMQSMIDDSYNEFVKVVAKGRGMSAEKVRKIADGRIYDGRQAKENGLIDEFGYQEDALEALKKEQGLADATVIQYDVPEDFSSLFSVAAQKISGQNADISQLIKLTGTLKAPRMMYLYGE
- protein production: failed

Sequence: MNAPGLAIEGLGVAYGARTVIAGLSLGPLPHGTLTALLGPNGSGKSTLLKAVAGLLPARGGAIALDGQRLDQADLAQRAQQVAYLPQGLPADVHLRVFESVLVAARAHGGEAAGQIGPPAIAALLERLGIGHLALQFLDELSGGQKQLVGLAQALIRRPRVLLLDEPLSALDPNYQFHVMDLLRQETRDHGLITIAALHDINIALRHADQALLIRAGELAAAGEPAAVIDAPMLARVYGIQARVERCSRGHPHVLVDGVAGPVR
- protein production: failed

Sequence: MNAPTVFESFSPDSGGVKTQLIIRGQNFGTDTAYLKVTVNNKRAAIVGVADDVIYAIVPARADTGYVRLFVGKDDNVEEYASQTKFIYQFKRNVTTLMGRQGQSGRDDGPYAECKLQRPWFALADKDGALFFIDEGRGQNKNGALRRAQEGWVETLVQNSSGPFQSPTCLAFNPKQDTLYISNMSYGSDIKTSFNILYVTREGGFMDVKGLCKFEKAETQGLAVHPQTGEIFFCNKSGGYIYRFNGPDYEDYEPLFQINRADKIDTRMVFNPEGTALFVVVCNRHCIYKVPYNALTHTFGEPELFAGGWDESGYVNGSGVTARFDNPRQPAFDQDGNMFVPEYGRHTIRKITPTGEVSLYAGLPGQAGFTDGLPEKARFNKPECVTVYLDNSLYVADRDNHLIRRVTVELEHHHHHH
- protein production: failed

Sequence: MNAYSQSLAPANTPLRETFSLDGTWEFRHETDRAWRHAKVPAHWQACFEDLAVSFGSATYRRTFTLPAEWSAREIAIRFGAVSDLATVSINGTEIGRHEGGYLPFEFVIPPALLKAENTVEVLACLPDAYRDESGADFAEIPHGKQSWYGPQGGIWQSVLIEARDPAHISSLRLDPIWPEARLDLKARFASMVAGSLKIEIIGPQGMPVFTGNIPAAGNTLDHSIQLDSVAPWSPDSPNLYTITTILSADGVEIDSRQESFGFRRFEAKDGFLHLNGKPLYLRAALDQDYYPDGFGAPPSLDLLEDQLRKAKAMGLNCLRCHIKVPDPRYYEVADRLGMLIWSEIPNIETFTPASAERLRTTMEGILARDGNHPSIVIWTLINEDWGTRLREAAEQRQWISDMVDWLRVEDPLRLVVDNSACFPNVHVKTDINDYHFYRTAVDRREEWDTLCREFAGNADWTFSTEKEAVRTRKEPLVLSEFGVWGLPDPARLREKNGRDPWWMAYGATWADGTALPQGIEARFRELALEKVFGDLGRFIEKVQWYQYMNLKYEIEVIRTHAPIGGYVITELTDVHWEGNGLMDMARNPRVFAKALPAVNSDIVIAPGAARHAVYEGQTASFDIKVSSGGTALPEGSRLVWEFGAEKGEIPLPAMAPMQVHNAPITTTADAVPVPAIQKARFQVVSPDGSVLSQNFETLAVYGKRDALPPIRFASNDDGISERLSALGHVSVSPHEADVFITKDIDADRVEAIHSGQRVLQIVDKDPGRLRDDAPPRDGPMSIEIDPGAGGMVSGPYFSFPGYNLVNRHKSIWRGDWVGNFSWLRRDGVFAHVPGGPLFDLSFTGVAPHQVMTGLRPWEFQGRVYAGVVIGWVHKPAAFIIEKRLGRGKLVATTFRLHQEAPDVDPLATALYDGLFALATRP
- protein production: failed

Sequence: MNAYYIQDRLEAQSWARHYQQIAREEKEAELADDMEKGLPQHLFESLCIDHLQRHGASKKAITRAFDDDVEFQERMAEHIRYIVETIAHHQADIDSEV
- protein production: failed

Sequence: MNCIPQYYKNRVCLNVLAGSIKNAKEVYDACDGHVLIGVLSKNYSTVEAAIEDMKKYSKEIDNAISVGLGAGDPNQSNMVSQISKELQPQHINQVFTGVATSRALLGQNYSIINGLVSPTGKPGFVKISTGPLSSKEKDGIVPIETAIAMMKDMGGSSIKFFPMGGLKTKDEYIEVAKACAKHNFYLEPTGGIDLDNFKEIVQIALDAGVEKVIPHVYTSIIDKETGETKVEDIGVLYKIMKELLG
- protein production: not failed

Sequence: MNCRKTALLKTGRVARLVLCSAMLGAAIPTMALAIGGASGAHVDYQVQGKLGEVIMNPYDIAPLTAIIKNGGYVLKDVTVRIVPKKDGQEIKYQVANKHLLTHGGIPVFGMYPDYVNTVEVEYSRLYNGKWEQAKESYTLYTPPVYTEPNATKTQKAALFSGADVKKVDKKFSDRLYFVNNFLHKAGKGTRAVWNNPTGGALEWNYYPQNFIVDTKGEVRWYMNANPIYDLKSIYNAGVMMGFKQNNDGAMSWGFGQRYVKYDIMGKEVFNRELPAGYNDFSHSMDNSPNGNYFLRVGSSNLKRADGKNVRTVRDVIIEVDPSSGLVQDEWRLFDILDPYRDVNFKVLDQGAVCLNIDASKAGHTMSAEDLAKQDANDKFGDIVGVGPGRNWAHVNSVDHDAEDDSIIISSRHQSAVIKIGRDKQIKWIMGSPEGWKKEYQGKLLTPVDSKGNKIECEAGGSKCPGYENDEGGFDWTWTQHTAFKIDSKSKGDIIYVSVFDNGDSRGMEQPALPSMKYSRAVIYKIDQKKMTVEQIWEFGKERGNGWYSPVTSLTEYQTDKDSVFVYSATAGADFDINTGAFKTDPNPYIMEFNYGSKEPAVEIQLKDTTGYQAMPFSVDKAFTK
- protein production: failed

Sequence: MNDALHIGLPPFLVQANNEPRVLAAPEARMGYVLELVRANIAADGGPFAAAVFERDSGLLIAAGTNRVVPGRCSAAHAEILALSLAQAKLDTHDLSADGLPACELVTSAEPCVMCFGAVIWSGVRSLVCAARSDDVEAIGFDEGPRPENWMGGLEARGITVTTGLLRDAACALLREYNACNGVIYNARCGVHK
- protein production: not failed

Sequence: MNDHTAAIAAHFDQLAPNLDRWRRRNRTYYRDLEKLHRFWIPTGSRVLQVGSGLGDLLATVEPSFGIGIDVSPQAVAIAQQRHPQLQFHCLAAEELTPEAIGNPEPFDAIILTGVLSYLTDIQVVLEQLQAFCHPRTRLILGFHNFLWQPLLTAAEKVGQRSPQPPESWLGMQDVLNLLTLTGYEPIKQGRRFLLPRQIPLLTGWINRWISPLPVIEHLALTNYVIARPLAQPRSQPTVSVIVPARNEAGNIAAAVERLPELGAETELIFVEGHSRDQTWETIEQTVAEYQGPLKLLACRQTGKGKADAVRLGFDKASGDILMILDADLTVQPEDLGHFYRAIASGRGEFINGSRLVYPRSRLAMPGLNTLANRTFALIFSFLLGQPLKDTLCGTKVLWKTDYDRVAAGRKYFGDFDPFGDFDLLFGAAKLGLEIVEVPVRYQERSYGSSNIAHVREGLILARMCLYAAGKLKFPH
- protein production: failed
